Columns and labels:
[1] = target: HAx3-tagged Cho1 (phosphatidylserine synthase from Candida albicans) (Candida albicans); assay: native gel or EMSA; BN-PAGE and anti-HA Western blot of SMA2000-solubilised membrane fractions (SMALPs), 1-4% SMA2000, 30 or 60 min, 37 °C
[2] = target: HAx3-tagged Cho1 (phosphatidylserine synthase from Candida albicans) (Candida albicans); assay: native gel or EMSA; BN-PAGE and anti-HA Western blot of Cho1-HAx3 pulled down with anti-HA beads and eluted harshly: 50 mM NaOH + 0.05% digitonin, then 1 M Tris pH 8.5

How did the stoichiometry N [1] turn out when “HAx3-tagged Cho1 (phosphatidylserine synthase from Candida albicans) (from UniProt A0A1D8PF32 1-273) (enzyme)” was run?
The stoichiometry N was 2.

What about the stoichiometry N [2] of the same substance?
The stoichiometry N was 2.
